Experiment [1] addresses C-terminal dCas9 constituent split at residue 1153 fused to Suntag (Streptococcus pyogenes) (UniProt Q99ZW2).
Experiment [2] deals with IntC:dCas9C:Suntag containing the residues from 1154 to 1368 (Streptococcus pyogenes) (UniProt Q99ZW2).
Experiment [3] concerns the target dCas9M:IntN containing the residues from 714 to 1153 (Streptococcus pyogenes) (UniProt Q99ZW2).
In experiment [4] the target is IntC:dCas9C:VPR split at residue 713 (dCas9 from residue 714) (Streptococcus pyogenes) (UniProt Q99ZW2).
For experiment [5], the target named is IntC:dCas9C-VRER:VPR split at residue 713 (two-output sensory switch, FIG. 27) (Streptococcus pyogenes) (UniProt Q99ZW2).

Substance “N-terminal dCas9 constituent split at residue 1153 (intein fusion not stated at the place of the experiment) (from UniProt Q99ZW2)” yielded a TagBFP expression, three-input logic AND circuit (two split-dCas9 constituents and rapalog), HEK293 cells in experiment [1] of 140 fold.

“dCas9M:IntN containing the residues from 714 to 1153 (from UniProt Q99ZW2)” yielded a TagBFP expression, three-input logic AND circuit of three split-dCas9 fragments, HEK293 cells in experiment [2] of 110 fold.

As to “dCas9N containing dCas9 residues from 1 to 713, without intein fusion (from UniProt Q99ZW2)”, in experiment [3], the TagBFP expression, three-input logic AND circuit of three split-dCas9 fragments, HEK293 cells was 110 fold.

“dCas9N:IntN split at residue 713 (from UniProt Q99ZW2)”: in experiment [4], the EYFP expression, two-input two-output sensory switch set by shRNA-FF5 and shRNA-FF4 was found to be 20 fold. For the same substance, the mKate2 expression, two-input two-output sensory switch set by shRNA-FF5 and shRNA-FF4 in experiment [5] came to 20 fold.

The record behind these values is US20170233703A1.
